This experiment has as its system primary RGC neuron cultures. The experiment is described as follows: Axonal blebs, neurite length and branching in transfected primary RGC neuron cultures of AD and tauopathy mice. In kind it is cell-based, mouse. The following applies: for number of axonal blebs: plasmid transfection, two weeks later, vs GFP. As to the method: FIGS. 10A-H: Numb72 reduces blebbing in AD mouse model RGCs. FIG. 10A. Primary retinal cultures were performed at P8 and cells were transfected using an Amaxa™ electroporator and analysed 14 days later. Cells GFP and NF165 positive were analysed in B6129J mouse line (Control) and triple transgenic mice (3×TGAD) expressing three mutations associated with familial Alzheimer's disease (APP Swedish, MAPT P301L, and PSEN1 M146V) after transfection of GFP or Numb-72 IRES::GFP. […] FIGS. 10B-D. Quantification of relative number of axonal blebs (FIG. 10B); axon (neurites) length (FIG. 10C) and branching number (FIG. 10D) in Control (B6129J) and 3×TGAD RGC axons was performed. Control numbers were normalized to 1. Error bars represent SEM, ** p≤0.001; n.s. non-significant; Anova 2 way for blebs and Student's t test for length and branching. FIG. 10E Primary retinal culture was performed at P8 and cells were transfected using an Amaxa™ electroporator and analysed 14 days later. Cells GFP and NF165 positive were analysed in C57b6 mouse line (Control) and P301S Tau mutant (TauP301S) (model of tauopathy) after transfection of GFP or Numb-72 IRES::GFP. […] FIGS. 10F-H. Quantification of relative number of axonal blebs (FIG. 10F); axon (neurites) length (FIG. 10G) and branching number (FIG. 7H) in Control (C57b6) (Control, FIGS. 10F-H) and TauP301S (FIGS. 10F-H) RGC axons was performed. Control numbers were normalized to 1. Error bars represent SEM, * p≤0.05; n.s. non-significant Anova 2 way for blebs and Student's t test for length and branching.
Retinal tissues were isolated from eyeballs of postnatal day 7 (P7) mice, cut in small pieces and incubated in PBS containing 5 mg/ml of papain, 0.24 mg/ml of L-cysteine, 0.5 mmol/l of EDTA, and 10 U/ml of DNase I for 2×3 min. The reaction was stopped by adding Lo-Ovo solution in PBS, and 10 U/ml of DNase I. The retinal cells were mechanically dissociated by gentle pipetting and collected as a suspension. Procedures were conducted at room temperature in a laminar flow hood. After centrifugation at 1000 rpm for 11 min, cells were resuspended in RGCs media and plate on glass coverslips at 50′000 cells/coverslips on a 24 wells plate and incubated at 37° C.; 8% CO2 for 2 weeks, half media was changed every 3 days. […]
To determine the neuroprotective effects of Numb-72, the inventors prepared primary RGC neuron cultures from control mice, triple transgenic mice (3×TGAD) expressing three mutations associated with familial Alzheimer's disease (APP Swedish, MAPT P301L, and PSEN1 M146V), or a P301S Tau mutant (model of tauopathy), and then expressed GFP or Numb-72 in these neurons by plasmid transfection. Two weeks later, the length of neurites, the number of branches, and the number of axonal blebs were counted.

Where [1] appears, read: control, 3xTGAD and P301S RGC neurons, two weeks after transfection.

B1: Numb-72: 72 kDa Numb isoform with long PTB domain and long PRR; human isoform 1 (SEQ ID NO: 1); expressed by transfection (protein)
chain: MNKLRQSFRRKKDVYVPEASRPHQWQTDEEGVRTGKCSFPVKYLGHVEVDESRGMHICEDAVKRLKAERKFFKGFFGKTGKKAVKAVLWVSADGLRVVDEKTKDLIVDQTIEKVSFCAPDRNFDRAFSYICRDGTTRRWICHCFMAVKDTGERLSHAVGCAFAACLERKQKREKECGVTATFDASRTTFTREGSFRVTTATEQAEREEIMKQMQDAKKAETDKIVVGSSVAPGNTAPSPSSPTSPTSDATTSLEMNNPHAIPRRHAPIEQLARQGSFRGFPALSQKMSPFKRQLSLRINELPSTMQRKTDFPIKNAVPEVEGEAESISSLCSQITNAFSTPEDPFSSAPMTKPVTVVAPQSPTFQANGTDSAFHVLAKPAHTALAPVAMPVRETNPWAHAPDAANKEIAATCSGTEWGQSSGAASPGLFQAGHRRTPSEADRWLEEVSKSVRAQQPQASAAPLQPVLQPPPPTAISQPASPFQGNAFLTSQPVPVGVVPALQPAFVPAQSYPVANGMPYPAPNVPVVGITPSQMVANVFGTAGHPQAAHPHQSPSLVRQQTFPHYEASSATTSPFFKPPAQHLNGSAAFNGVDDGRLASADRHTEVPTGTCPVDPFEAQWAALENKSKQRTNPSPTNPFSSDLQKTFEIEL
modifications: homo sapiens
notes: 72 kDa Numb isoform with long PTB domain and long PRR; expressed by transfection
In the case of B1, the “number of axonal blebs” value (3xTGAD RGC neurons) is given as “reduced back to control levels”. Further, the “number of axonal blebs” value (P301S Tau mutant RGC neurons) is recorded as “reduced back to control levels”. Under setting [1], the neurite length entry is on record as “not changed in any condition” and the number of branches result is listed as “not changed in any condition”.

Source of the values: patent US12186353B2, “Method of reducing neuronal microtubule binding protein Tau (Tau) levels” (ADAERATA, LIMITED PARTNERSHIP, priority 2018, dated 2025).
